Reference: paper PMC2120792

How the values were obtained:
[1] = target: recombinant human plakoglobin, complete (pQPg) (human) (UniProt P14923); test: ELISA
[2] = target: SyPg(580), synaptophysin-plakoglobin chimera truncated after plakoglobin residue 580 (rat | human) (UniProt P07825); test: co-IP
[3] = target: SyPg(234), synaptophysin-plakoglobin chimera truncated after plakoglobin residue 234 (rat | human) (UniProt P07825); test: co-IP

Sequence of UniProt P14923 (P14923 whole entry, the tested form may be a part): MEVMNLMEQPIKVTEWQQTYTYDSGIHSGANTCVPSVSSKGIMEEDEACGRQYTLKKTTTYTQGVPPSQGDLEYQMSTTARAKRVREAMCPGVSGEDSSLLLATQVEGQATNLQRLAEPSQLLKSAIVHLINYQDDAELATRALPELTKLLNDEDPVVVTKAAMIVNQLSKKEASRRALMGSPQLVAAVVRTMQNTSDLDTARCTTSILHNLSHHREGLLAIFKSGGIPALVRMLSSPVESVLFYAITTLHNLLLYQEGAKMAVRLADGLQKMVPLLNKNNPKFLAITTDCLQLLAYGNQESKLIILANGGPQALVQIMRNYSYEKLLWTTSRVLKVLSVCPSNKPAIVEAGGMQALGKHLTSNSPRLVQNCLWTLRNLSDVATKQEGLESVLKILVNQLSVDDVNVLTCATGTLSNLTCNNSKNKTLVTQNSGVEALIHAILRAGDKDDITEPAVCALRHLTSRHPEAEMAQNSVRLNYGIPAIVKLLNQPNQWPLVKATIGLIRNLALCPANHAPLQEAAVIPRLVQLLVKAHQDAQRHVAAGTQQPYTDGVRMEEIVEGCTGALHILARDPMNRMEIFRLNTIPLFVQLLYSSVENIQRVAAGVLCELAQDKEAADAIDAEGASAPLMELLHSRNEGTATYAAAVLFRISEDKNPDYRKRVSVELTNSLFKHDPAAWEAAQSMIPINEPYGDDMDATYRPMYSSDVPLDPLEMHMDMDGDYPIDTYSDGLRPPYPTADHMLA

| fold weaker binding than HCDg [1] | Dsg coprecipitated relative to SyPg (fraction of that with SyPg) [2] | Dsg coprecipitated relative to SyPg (fraction of that with SyPg) [3] | Substance |
| --- | --- | --- | --- |
| 2 fold | – | – | HCDc, his-tagged cadherin tail with the IA subdomain and C-domain of bovine Dsc1 (domain or fragment) |
| 5 fold | – | – | HCUv, his-tagged cadherin tail with the IA subdomain of bovine Dsc1 and the C-subdomain of murine E-cadherin |
| – | < 0.33 | < 0.33 | endogenous desmoglein (Dsg) (from UniProt Q14126 50-1118) (natural protein) |
